Here are results for two sequences from publication PMC7486931.

Series [1] addresses T1, VtlR (rVtlR) (Agrobacterium tumefaciens C58) (UniProt A9CI74).
T1 sequence: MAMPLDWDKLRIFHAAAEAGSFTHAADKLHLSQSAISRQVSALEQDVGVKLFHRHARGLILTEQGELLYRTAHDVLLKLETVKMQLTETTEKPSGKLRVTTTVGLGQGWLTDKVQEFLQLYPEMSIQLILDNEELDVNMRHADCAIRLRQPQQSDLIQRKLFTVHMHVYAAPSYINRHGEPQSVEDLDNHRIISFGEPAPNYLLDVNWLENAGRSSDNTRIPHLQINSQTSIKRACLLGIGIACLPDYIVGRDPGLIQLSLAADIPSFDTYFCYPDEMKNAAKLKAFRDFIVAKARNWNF
The series is described as follows: EMSA.

Series [2] addresses T1, VtlR (rVtlR) (Agrobacterium tumefaciens C58). The series is described as follows: competition.

As for “GAACTGGGAGGAAAAGCCACCGTGTGCATCAACTGAGAGCTATTTGGTGTTTTTTTGTGCACGAAACAACTCTTTTTTGTGCAGGTCAGGCATGCGTCGCACGCAGCCCTCGATATTTCCGGTATATTTTATGTGCAAAGCTGAAGAAGGGCGCCTGCGCGCCCCTCTTGCTTCTACCTTTACAAGGCTTTGAATTTTAAAGATTATCTTTCGACGTCGATTATTTTTACGTCAGAAGTTCCAGTTCCGC (double strand) [PabcR1]”, the binding result in series [1] is recorded as “binds”.
For the sequence “GCCGTGGGCAAGCGTGACAGCTAACTAAAATATGGGAGTGGCAAGAATGCAAAACAAGGTTGCATCATGCGATATTTCGCCAATTTGGAGAAAATTCTTGCGGGTAAAAAAAGAGGGCCGCCG (double strand) [PabcR2]”, the binding entry in series [2] was “no binding”.
